The target in assay [1] is baboon CD4 on lymphocytes (baboon). Kind of assay: flow cytometry on lymphocytes of different species.
Assay [2] addresses Fc receptors on human cells (γIFN-induced monocytes, γIFN-induced THP-1 cells, ADCC effector cells). Kind of assay: cell-based or functional assay.
In assay [3] the target is human CD4 on cells (human) (UniProt P01730). The experiment in a line: cell-based or functional assay.

Substance “CE9.1 monkey/human chimeric anti-CD4 monoclonal antibody (ATCC No. 69030 construct) (from UniProt P01857 1-330)” returned a fold lower reactivity than human in assay [1] of 10 fold. In assay [2], this substance had an ADCC, concentration at maximal cytotoxicity of 6 µg/mL; an ADCC, total specific lysis of SupT1 cells of 50%; an ED50 of cell-cell adhesion (γIFN activated fresh monocytes and CD4+ SupT1 T cells) of 0.02 µg/mL.

As for CE9γ4λK (antibody), in assay [3], the IL-2 Production (IC50), three way MLR was determined as 0.02 µg/mL and the Proliferation (IC50), three way MLR was 0.02 µg/mL.
